This is an account of results in patent US20100105141, “Sulfonylurea-Responsive Repressor Proteins” (Pioneer Hi-Bred International, Inc., published 2010).

This data set has as its target L7-1F08-A11 (L7-A11, EsR2) (synthetic, UniProt P04483 SEQ:1-207, L55M,H64A,F67Y,F86M,H100C,R104G,P105F,K108Q,L113A,Q116S,L134M,S135Q,H139I,F140Y, …). The data set is described as follows: EMSA; 5 pmol DNA, 20 mM Tris-HCl pH 8.0, 10 mM EDTA, RT 0.5 h; released by ethametsulfuron dose-dependently, less by chlorsulfuron; no change with atc. Particulars: chain copies: 2. Background: Mobility shift assays separate free from complexed probe on a gel.

Experimental: Five pmol of TetO or control DNA was mixed with the indicated amounts (FIG. 7) of ethametsulfuron repressor protein (L7A11) or BSA control with or without inducer in complex buffer containing 20 mM Tris-HCl (pH8.0) and 10 mM EDTA. The mixture was incubated at room temperature for 0.5 hour before loading onto the gel. The reaction was electrophoresed on a Novex 6% DNA retardation gel (Invitrogen, EC6365BOX) at room temperature, 38 V in 0.5×TBE buffer for about 2 hours. DNA was detected by ethidium bromide staining.

B1: tetO 48 bp (dsDNA)
DNA 1: CCTAATTTTTGTTGACACTCTATCATTGATAGAGTTATTTTACCACTC
DNA 2: GAGTGGTAAAATAACTCTATCAATGATAGAGTGTCAACAAAAATTAGG
For B1, the binding result was “binds”.
